The values below come from the supplement of paper PMC9112550, “Optimization of the antimicrobial peptide Bac7 by deep mutational scanning” (BMC Biology, 2022).

The data set concerns Escherichia coli TOP10. Kind of data set: shrunken log2 fold change of peptide-encoding DNA abundance (4.5 h post-induction vs induction); higher = less antimicrobial activity (less host growth inhibition). The note with it: time post-induction: 4.5 h; library: site-saturation at positions 5, 18, 19, 20.
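Also: peptides expressed intracellularly from a pBAD plasmid library in pooled LB shake-flask culture, induced with 0.3% L-arabinose, DNA abundance read by NGS, three biological replicates, DESeq2 with apeglm shrinkage.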

As to RRIRARPPRLPRPRPRPDEAPRP, the “shrunken log2 fold change” value was found to be 1.12.
As for RRIRQRPPRLPRPRPRPQLWPRP, the “shrunken log2 fold change” value is -0.135.
Turning to RRIRLRPPRLPRPRPRPKVRPRP, the “shrunken log2 fold change” value turned out to be 0.316.
Under RRIRTRPPRLPRPRPRPEGYPRP stands -0.104; under RRIRKRPPRLPRPRPRPLFEPRP, 0.513.
With RRIRSRPPRLPRPRPRPSESPRP, the “shrunken log2 fold change” value was -0.198.
With RRIRFRPPRLPRPRPRPYFAPRP the figure was -0.572; with RRIRYRPPRLPRPRPRPCQPPRP, -0.354.
Regarding RRIRWRPPRLPRPRPRPRTSPRP, the “shrunken log2 fold change” value was -0.0212.
Under RRIRYRPPRLPRPRPRPHVNPRP stands -0.0934; under RRIRQRPPRLPRPRPRPLYMPRP, -0.198.
Under RRIRWRPPRLPRPRPRPWNLPRP stands -0.0421; under RRIRLRPPRLPRPRPRPHWLPRP, -0.0104; under RRIRARPPRLPRPRPRPFDKPRP, -0.107.
With RRIRLRPPRLPRPRPRPHKHPRP the figure was -0.53.
RRIRQRPPRLPRPRPRPFGTPRP: the “shrunken log2 fold change” value was -0.1.
In the case of RRIRTRPPRLPRPRPRPGSDPRP, the “shrunken log2 fold change” value stood at 0.424.
For the sequence RRIRDRPPRLPRPRPRPYRIPRP, the “shrunken log2 fold change” value was 0.0295.
With RRIRGRPPRLPRPRPRPMEMPRP the figure was 0.756.
As for RRIRGRPPRLPRPRPRPIMVPRP, the “shrunken log2 fold change” value was -0.0212.
Under RRIRCRPPRLPRPRPRPMICPRP stands -0.0738.
With RRIRARPPRLPRPRPRPDSHPRP the figure was -0.779; with RRIRARPPRLPRPRPRPVGNPRP, 0.0787.
Under RRIRNRPPRLPRPRPRPLMTPRP stands 0.0149.
Regarding RRIRKRPPRLPRPRPRPPGWPRP, the “shrunken log2 fold change” value is 0.675.
As for RRIRIRPPRLPRPRPRPKVDPRP, the “shrunken log2 fold change” value was -0.468.
For the sequence RRIRCRPPRLPRPRPRPEMSPRP, the “shrunken log2 fold change” value is -0.129.
Under RRIRFRPPRLPRPRPRPENFPRP stands 0.0164.
As to RRIRQRPPRLPRPRPRPDSVPRP, the “shrunken log2 fold change” value was -0.0518.
Take RRIRSRPPRLPRPRPRPFPCPRP: the “shrunken log2 fold change” value was -0.124.
Under RRIRDRPPRLPRPRPRPDSEPRP stands -0.0121; under RRIRARPPRLPRPRPRPHNFPRP, -0.108; under RRIRNRPPRLPRPRPRPYGLPRP, -0.106.
With RRIRERPPRLPRPRPRPEPWPRP the figure was 0.0721.
As for RRIRWRPPRLPRPRPRPYYAPRP, the “shrunken log2 fold change” value was -0.195.
With RRIRIRPPRLPRPRPRPLYLPRP the figure was -1.08.
Consider RRIRIRPPRLPRPRPRPPCCPRP, for which the “shrunken log2 fold change” value was -0.31.
With RRIRNRPPRLPRPRPRPFDDPRP the figure was -0.00192; with RRIRWRPPRLPRPRPRPEINPRP, 0.267.
With RRIRIRPPRLPRPRPRPWLGPRP the figure was 0.0945; with RRIRDRPPRLPRPRPRPSDLPRP, 0.0645.
With RRIRMRPPRLPRPRPRPNISPRP the figure was -0.29; with RRIRLRPPRLPRPRPRPQICPRP, -0.0895.
Take RRIRCRPPRLPRPRPRPIMGPRP: the “shrunken log2 fold change” value is 0.00854.
Turning to RRIRTRPPRLPRPRPRPCPSPRP, the “shrunken log2 fold change” value is -0.0705.
Under RRIRTRPPRLPRPRPRPLFGPRP stands -0.186; under RRIRARPPRLPRPRPRPYLRPRP, -0.228.
Under RRIRARPPRLPRPRPRPIKAPRP stands 0.105.
Under RRIRSRPPRLPRPRPRPKVIPRP stands -0.0209.
Turning to RRIRCRPPRLPRPRPRPMRNPRP, the “shrunken log2 fold change” value was 0.185.
Consider RRIRPRPPRLPRPRPRPLPKPRP, for which the “shrunken log2 fold change” value stood at 0.216.
With RRIRGRPPRLPRPRPRPKQMPRP the figure was 1.03; with RRIRWRPPRLPRPRPRPCFKPRP, 0.0478.
Under RRIRDRPPRLPRPRPRPYWIPRP stands -0.296; under RRIRCRPPRLPRPRPRPVYCPRP, -0.755; under RRIRTRPPRLPRPRPRPCEPPRP, -0.0796.
With RRIRCRPPRLPRPRPRPNVAPRP the figure was 0.0221; with RRIRFRPPRLPRPRPRPHMPPRP, -0.0659; with RRIRIRPPRLPRPRPRPTAAPRP, 0.116.
On to RRIRCRPPRLPRPRPRPYWPPRP, for which the “shrunken log2 fold change” value is -0.158.
With RRIRFRPPRLPRPRPRPCQQPRP the figure was 0.0307; with RRIRWRPPRLPRPRPRPLRCPRP, 0.242.
Under RRIRMRPPRLPRPRPRPETMPRP stands 3.17; under RRIRKRPPRLPRPRPRPPELPRP, 0.23.
For the sequence RRIRMRPPRLPRPRPRPNASPRP, the “shrunken log2 fold change” value came to 0.0546.
With RRIRARPPRLPRPRPRPNFQPRP the figure was -0.0343; with RRIRLRPPRLPRPRPRPCPHPRP, -0.0552.
For RRIRPRPPRLPRPRPRPPPVPRP, the “shrunken log2 fold change” value is 0.744.
As to RRIRSRPPRLPRPRPRPFYDPRP, the “shrunken log2 fold change” value is -0.254.
With RRIRVRPPRLPRPRPRPCEGPRP, the “shrunken log2 fold change” value is -0.0149.
Take RRIRVRPPRLPRPRPRPLDSPRP: the “shrunken log2 fold change” value was -0.19.
Take RRIRGRPPRLPRPRPRPIWTPRP: the “shrunken log2 fold change” value stood at 0.352.
With RRIRYRPPRLPRPRPRPHVSPRP the figure was 0.0324; with RRIRGRPPRLPRPRPRPQLHPRP, 0.231; with RRIRWRPPRLPRPRPRPRAMPRP, 0.363.
RRIRVRPPRLPRPRPRPHHHPRP: the “shrunken log2 fold change” value was -0.611.
With RRIRTRPPRLPRPRPRPKFRPRP the figure was -0.204; with RRIRKRPPRLPRPRPRPFAEPRP, 0.266.
With RRIRNRPPRLPRPRPRPHTEPRP the figure was 0.0434.
On to RRIRSRPPRLPRPRPRPTGIPRP, for which the “shrunken log2 fold change” value was -0.0906.
RRIRDRPPRLPRPRPRPWDWPRP: the “shrunken log2 fold change” value turned out to be 1.03.
Take RRIRQRPPRLPRPRPRPNYDPRP: the “shrunken log2 fold change” value was -0.257.
Under RRIRWRPPRLPRPRPRPWTNPRP stands 0.0442.
Under RRIRVRPPRLPRPRPRPCWGPRP stands -0.0908; under RRIRTRPPRLPRPRPRPHCVPRP, -0.192; under RRIRIRPPRLPRPRPRPSESPRP, -0.159.
With RRIRTRPPRLPRPRPRPLIKPRP, the “shrunken log2 fold change” value was -1.06.
Under RRIRYRPPRLPRPRPRPGSVPRP stands -0.101; under RRIRIRPPRLPRPRPRPQIFPRP, 0.0997; under RRIRYRPPRLPRPRPRPKPDPRP, 0.0117.
RRIRWRPPRLPRPRPRPQHSPRP: the “shrunken log2 fold change” value is -0.186.
